Patent US7867500B2, “Cofactor that modulates steroid receptor activities” (The United States of America as represented by the …, priority 2004, dated 2011)

T1: TIF2.4 (Homo sapiens, UniProt Q15596)
T1 sequence (Q15596 624-1010 limits assumed): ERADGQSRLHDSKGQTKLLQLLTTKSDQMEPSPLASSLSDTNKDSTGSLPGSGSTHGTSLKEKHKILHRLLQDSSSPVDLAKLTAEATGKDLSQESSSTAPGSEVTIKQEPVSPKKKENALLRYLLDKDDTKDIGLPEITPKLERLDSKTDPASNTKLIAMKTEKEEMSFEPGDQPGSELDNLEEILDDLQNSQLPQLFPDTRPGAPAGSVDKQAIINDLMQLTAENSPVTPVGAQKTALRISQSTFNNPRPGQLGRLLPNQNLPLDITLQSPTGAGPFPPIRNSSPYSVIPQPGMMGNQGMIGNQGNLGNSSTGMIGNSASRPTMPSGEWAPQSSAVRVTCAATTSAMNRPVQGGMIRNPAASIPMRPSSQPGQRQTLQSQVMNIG

T2: SRC-1 (1139C) (Homo sapiens, UniProt Q15788)
T2 construct: expressed in transfected cells; host or cells: CV-1
T2 sequence (Q15788 1139-1441 limits assumed): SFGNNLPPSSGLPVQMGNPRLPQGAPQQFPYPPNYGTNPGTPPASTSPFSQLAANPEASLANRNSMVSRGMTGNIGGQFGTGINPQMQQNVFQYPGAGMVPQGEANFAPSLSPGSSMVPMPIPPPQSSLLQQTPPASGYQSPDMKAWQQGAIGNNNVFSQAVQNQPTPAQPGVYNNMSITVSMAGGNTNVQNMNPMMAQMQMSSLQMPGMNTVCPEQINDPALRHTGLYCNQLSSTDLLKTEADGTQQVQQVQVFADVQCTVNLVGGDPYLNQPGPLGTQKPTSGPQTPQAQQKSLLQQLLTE
T2 sequence (Q6EMB2 627-838 partner limits assumed): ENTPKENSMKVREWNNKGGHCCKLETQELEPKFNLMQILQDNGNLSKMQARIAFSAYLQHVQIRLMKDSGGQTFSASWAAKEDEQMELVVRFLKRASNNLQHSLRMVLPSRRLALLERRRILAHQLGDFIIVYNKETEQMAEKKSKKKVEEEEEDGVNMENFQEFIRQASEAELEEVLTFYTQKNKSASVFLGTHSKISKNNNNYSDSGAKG

B1: STAMP834C: STAMP fragment amino acids 834-1277, receptor interaction domain (RID) (protein)
chain: GDHPETIMEEVKIKPPKQQQTTEIHSDKLSRFTTSAEKEAKLVYSNSSSGPTATLQKIPNTHLSSVTTSDLSPGPCHHSSLSQIPSAIPSMPHQPTILLNTVSASASPCLHPGAQNIPSPTGLPRCRSGSHTIGPFSSFQSAAHIYSQKLSRPSSAKAGSCYLNKHHSGIAKTQKEGEDASLYSKRYNQSMVTAELQRLAEKQAARQYSPSSHINLLTQQVTNLNLATGIINRSSASAPPTLRPIISPSGPTWSTQSDPQAPENHSSSPGSRSLQTGGFAWEGEVENNVYSQATGVVPQHKYHPTAGSYQLQFALQQLEQQKLQSRQLLDQSRARHQAIFGSQTLPNSNLWTMNNGAGCRISSATASGQKPTTLPQKVVPPPSSCASLVPKPPPNHEQVLRRATSQKASKGSSAEGQLNGLQSSLNPAASVPITSSTDPAHTKI
B2: 6-6CL1: STAMP fragment amino acids 623-834, coactivator interaction domain (CID) (protein)
chain: T2 sequence (Q6EMB2 627-838 partner limits assumed)

Key:
Type in all cases: cell-based
ERβ = biological target: T3, ERβ (Homo sapiens, UniProt Q92731); assay: Mammalian two-hybrid assay with VP16 full length receptor: ERβ; details: 1 μM estradiol
T3 construct: plus VP16 fused to the indicated full length receptors; expressed in transfected cells; host or cells: CV-1
T3 sequence (Q92731 whole entry, species assumed, the tested form may be a part): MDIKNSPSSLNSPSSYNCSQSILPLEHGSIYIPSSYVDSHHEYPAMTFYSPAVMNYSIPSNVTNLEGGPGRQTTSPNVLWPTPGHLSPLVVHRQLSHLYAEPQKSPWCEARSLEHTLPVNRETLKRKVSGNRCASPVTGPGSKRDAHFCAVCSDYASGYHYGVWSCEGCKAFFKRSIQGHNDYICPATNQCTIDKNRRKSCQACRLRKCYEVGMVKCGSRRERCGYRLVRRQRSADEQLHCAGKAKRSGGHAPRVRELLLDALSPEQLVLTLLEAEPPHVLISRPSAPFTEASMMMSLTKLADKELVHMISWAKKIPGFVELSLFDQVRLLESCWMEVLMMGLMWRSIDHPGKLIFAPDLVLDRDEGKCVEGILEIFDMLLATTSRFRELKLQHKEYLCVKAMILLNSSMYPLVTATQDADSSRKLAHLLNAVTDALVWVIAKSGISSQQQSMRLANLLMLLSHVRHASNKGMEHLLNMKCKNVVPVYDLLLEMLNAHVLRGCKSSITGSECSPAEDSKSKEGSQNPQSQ
Experimental: FIG. 6C1-3 illustrate the association of STAMP with assorted steroid/nuclear receptors, including glucocorticoid receptors (GRs), progesterone receptors (PRs), androgen receptors (ARs), estrogen receptors (ER α or β), PPARγ2 receptors, thyroid receptor beta (TR), and retinoid (α) receptors (RAR α or RXR α). Triplicate samples of CV-1 cells were transfected (as described for FIG. 6B) with GAL, or GAL fused to TIF2.4 or STAMP834C, plus VP16 fused to the indicated full length receptors and incubated with the appropriate steroid (1 μM Dex, 20 nM R5020, 1 nM R1881, 0.1 μM triiodothyronine, or 1 μM estradiol, roziglitazone, or 9-cis-retinoic acid). The average relative luciferase activities of 2-3 experiments±S.E.M. were then plotted. FIG. 6C1 illustrates the effects of STAMP association upon GR, PR and AR induced expression. FIG. 6C2 illustrates the effects of STAMP association upon ERα, ERβ and PPARγ2 induced expression. FIG. 6C3 illustrates the effects of STAMP association upon TR, RARα and RXRα induced expression.
These assays were conducted as described (He et al., 2002). […]

TIF2.4 = biological target: T1, TIF2.4; assay: Mammalian two-hybrid assay in CV-1 cells (pFRLuc reporter) with TIF2.4; set-up: expressed in transfected cells; host or cells: CV-1
From the text: (§1) FIG. 2A-2C illustrate the isolation and characterization of the partial clone of the protein that binds to TIF2.4. […] Five clones were obtained but only two (clones I and V) contained a protein that was needed for colony growth in the presence of the pSos/TIF2.4 fusion protein. After initial screening, only clone I (also named 6-6CL1) was selected for further investigation. FIG. 2B and FIG. 2C illustrate the selectivity of 6-6CL1 interactions with TIF2.4 in mammalian two-hybrid assays. Triplicate samples of CV-1 cells in 24-well plates were transiently transfected with the indicated GAL-DBD and VP16-AD plasmids along with the GAL4-regulated reporter, pFRLuc. The relative luciferase activity, normalized for the activity of the internal Renilla control, was determined and plotted as the average±S.D. The much lower activity of GAL/TIF2.4m123 was previously shown not to be due to unequal levels of protein expression (He et al., 2002). Similar results were obtained in three additional experiments. FIG. 2D and FIG. 2E provide a comparison of binding to 6-6CL1 by similarly positioned domains of SRC-1 and TIF2. Triplicate samples of CV-1 cells in 24-well plates were analyzed as in (B&C) after being transiently transfected with GAL±6-6CL1 constructs and pFRLuc reporter along with VP16 chimeras of SRC-1 (FIG. 2D) or TIF2 (FIG. 2E) segments. Similar results for SRC-1 were obtained in two additional experiments (ND=not determined). Western blots (FIG. 2F) indicate that the low activity of TIF2(1140C) (see FIG. 1) is not due to inadequate protein expression.
FIGS. 6A and 6B illustrate the domains of STAMP that interact with TIF2.4 (FIG. 6A) and GR (FIG. 6B) in the mammalian two-hybrid assay. […] These CV-1 cells were also transfected with GAL fused to the indicated segments of STAMP along with the FRLuc reporter and Renilla control plasmids. After determining the relative luciferase activities as described in FIG. 2B and 2C, the average values±S.E.M. from 2-5 experiments were plotted. The average fold increase for VP16/TIF2.4 with GAL/STAMP(623-834) in FIG. 6A was 11.0±3.0 (SEM, n=5) above the VP16 control. The values in parentheses above the data bars in FIG. 6B indicate the fold increased interaction ±1 μM Dex.
These assays were conducted as described (He et al., 2002). In particular, the recommended procedure for the Mammalian Matchmaker two-hybrid assay kit (Clontech) was modified slightly by changing from a chloramphenicol acetyltransferase reporter to a Luciferase Reporter pFRLuc (Stratagene), which is under the control of five repeats of the upstream activating sequence for the binding of GAL4.

TIF2.4m123 = assay: Mammalian two-hybrid assay in CV-1 cells with TIF2.4m123; details: equal amounts of protein
From the text: as §1, with “FIG. 2D and FIG. 2E provide a comparison of binding to 6-6CL1 by similarly positioned domains of SRC-1 and TIF2.” left out, “Western blots (FIG. 2F) indicate that the low activity of TIF2(1140C) (see FIG. 1) is not due to inadequate protein expression.” left out

SRC-1 (1139C) = biological target: T2, SRC-1 (1139C); assay: Mammalian two-hybrid assay in CV-1 cells with SRC-1 C-terminal fragment
From the text: as §1, with “FIG. 2D and FIG. 2E provide a comparison of binding to 6-6CL1 by similarly positioned domains of SRC-1 and TIF2.” left out, “Western blots (FIG. 2F) indicate that the low activity of TIF2(1140C) (see FIG. 1) is not due to inadequate protein expression.” left out

Molecule	interaction with estrogen receptor β (ERβ)	interaction with TIF2.4 (TIF2.4)	interaction with TIF2.4m123 (TIF2.4m123)	interaction with C-terminal portion of SRC-1 (1139C) (SRC-1 (1139C))	average fold increase for VP16/TIF2.4 above the VP16 control (TIF2.4; SEM, n=5) [fold]
B1	lack of interaction	weak response	–	–	–
B2	–	did interact	did not interact	strongly interacted	11.0±3.0
